Results published in patent publication US20220088115A1, “PHARMACEUTICAL COMPOSITION, COMPRISING INHIBITORY PEPTIDE AGAINST FAS SIGNALING, FOR PREVENTION OR TREATMENT OF OBESITY, FATTY LIVER, OR STEATOHEPATITIS” (SIGNET BIOTECH INC., priority 2018, published 2022).

Tests used:
[1] = Delivery of fluorescently labeled peptide to tissues of obesity model mice (HFD); type: in vivo, C57BL/6 mice
Protocol: (§1) All animal experiments performed for the present invention were approved by the Institutional Animal Care and Use Committee of Hanyang University. […] Thereafter, depending on the experimental group, 60 μg/one time of FBP8 were administered by intravenous injection twice a week for a total of 5 weeks (FIG. 13), or FBP7 was administered by subcutaneous injection twice a day.
100 μg of an Alexa 647-bound peptide was administered by intravenous injection into obesity model mice, and after 12, 24, and 48 hours, the tissues were isolated, and the fluorescence signals in each tissue were analyzed with an image station fluorescence analyzer (Carestream). After the fluorescence signal analysis, the relative fluorescence intensity of each tissue was compared using an ImageJ program provided by NIH.
In addition, 100 μg of Alexa 488-bound FBP was administered by intravenous injection into obesity model mice to confirm whether cell units of peptides were delivered to liver tissues, and frozen tissue sections were produced by isolating the liver tissues after 12, 24, and 48 hours. Thereafter, the nuclei were stained with Hoechst 33342, and the fluorescence signals were analyzed under a TCS-SP5 confocal microscope.
Based on the Fas-specific binding ability of FBP-8 confirmed by the experiments, it was confirmed whether FBP-8 could be specifically delivered to liver tissues or adipose tissues when systemically delivered by intravenous injection or subcutaneous injection. Fluorescently labeled FBP-8 was injected by intravenous injection or subcutaneous injection into obesity model mice in the high fat diet group, and after 24 and 48 hours, the fluorescence distribution was investigated by isolating each organ.

Fas = molecular target: T1, Fas (Homo sapiens, UniProt P25445); experiment: Binding of Alexa647-labeled peptides to Fas-expressing Jurkat cell line; settings: Jurkat cell line always expressing Fas; Alexa647-labeled peptide
T1 construct: A Jurkat cell line, in which Fas is always expressed; host or cells: Jurkat
T1 sequence (P25445 26-335): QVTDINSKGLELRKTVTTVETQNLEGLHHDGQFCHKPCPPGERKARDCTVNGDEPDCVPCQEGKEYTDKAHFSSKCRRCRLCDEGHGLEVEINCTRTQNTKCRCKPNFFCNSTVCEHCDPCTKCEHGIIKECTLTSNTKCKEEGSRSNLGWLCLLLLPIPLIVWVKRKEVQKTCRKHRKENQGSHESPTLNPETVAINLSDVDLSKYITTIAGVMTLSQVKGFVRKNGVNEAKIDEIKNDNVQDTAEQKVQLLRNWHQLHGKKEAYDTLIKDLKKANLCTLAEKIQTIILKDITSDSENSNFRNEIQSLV
Protocol: A Jurkat cell line which is a human blood cancer cell line and a 3T3L1 cell line which is a murine adipocyte were purchased from ATCC (USA), and the Jurkat cell line was cultured in an RPMI culture medium containing 10% fetal bovine serum (FBS), 1% penicillin, 1% streptomycin, and 25 mM glucose.
A Jurkat cell line, in which Fas is always expressed, was treated with an FITC-labeled Fas antibody and treated with Alexa647-labeled FBP-8, FBP-A, FBP-7 or control peptide (YCNSTVCY; CtrFBP).

3T3L1 cell line [2] = experiment: Cytotoxicity by CCK-8 analysis kit in 3T3L1 cell line; type: cell-based, murine; settings: differentiated 3T3L1 cell lines, 100 μM to 1000 μM, 24 hours
Protocol: (§2) The 3T3L1 cell line was cultured in a DMEM culture medium containing 10% FBS, 1% penicillin, 1% streptomycin, and 25 mM glucose. The 3T3L1 cell line was aliquoted into the above DMEM culture solution at a concentration of 2×10^5 cells/ml to induce adipocyte maturation for 3 days, and then replaced with a culture solution containing insulin to induce adipocyte maturation again for 3 days. Thereafter, the 3T3L1 cell line was further cultured in the above DMEM culture solution for 2 days to achieve complete maturation of adipocytes.
The cytotoxicity experiments of the peptides described in 1. above were performed by a CCK-8 analysis kit (Dojindo Laboratories, Japan). The 3T3L1 cell line was treated with peptides at various concentrations (uM) and cytotoxicity was analyzed after 24 hours.

obesity model mice = experiment: Crown-like structure (CLS) in white adipose tissues, obesity model mice, intravenous FBP-8; type: in vivo, C57BL/6 mice; settings: compared to negative control (CtrFBP)
Protocol: as §1
Liver tissue and white adipose tissue sections were stained with hematoxylin & eosin and then histologically analyzed under an optical microscope.

3T3L1 cell line [3] = experiment: Apoptosis level in 3T3L1 cell line treated with FasL and peptide (annexin V flow cytometry); type: cell-based, murine; settings: differentiated 3T3L1 treated with Fas ligand and peptide
Protocol: as §2
The 3T3L1 cell line was treated with a Fas ligand (FasL) at a concentration of 500 ng/ml to induce apoptosis, and FBP signal blocking peptides (FBP-8. FBP-A and FBP-7) and CtrFBP bound to Alexa647 were treated, respectively. After 4 hours of peptide treatment, cells were washed with DPBS and treated with FITC-bound annexin V (BD Pharmingen) to analyze the apoptosis inhibitory effect by a flow cytometer.

[4] = intravenous, liver tissue sections

## YCDEHFCY (Fas binding peptide-8 (FBP-8))
[1]; intravenous, 24 and 48 hours
  tissue delivery after intravenous injection: specifically delivered to the liver tissue and white adipose tissue
[1]; [4]
  time from which peptide was delivered to the liver tissue after intravenous injection: 12 h
  time until which peptide remained in the liver tissue after intravenous injection: 48 h
[1]; subcutaneous
  time remaining in the liver tissue after subcutaneous injection: ≥ 48 h
[1]; subcutaneous, compared to CtrFBP, 24 and 48 hours
  tissue delivery after subcutaneous injection: specifically delivered to the liver tissue
Fas
  binding to Jurkat cells (Alexa647 signal): bound to Jurkat cells at similar levels
3T3L1 cell line [2]
  cytotoxicity: little cytotoxicity was observed
Obesity model mice
  crown-like structure (CLS) in white adipose tissues: remarkably reduced
3T3L1 cell line [3]
  apoptosis level: 14±2.98%
